From PMC9604145

Target: Su(H)^wt-myc (Suppressor of Hairless, wildtype, pcDNA3.1) (D. melanogaster) (UniProt P28159)
UniProt P28159, sequence (P28159 whole entry): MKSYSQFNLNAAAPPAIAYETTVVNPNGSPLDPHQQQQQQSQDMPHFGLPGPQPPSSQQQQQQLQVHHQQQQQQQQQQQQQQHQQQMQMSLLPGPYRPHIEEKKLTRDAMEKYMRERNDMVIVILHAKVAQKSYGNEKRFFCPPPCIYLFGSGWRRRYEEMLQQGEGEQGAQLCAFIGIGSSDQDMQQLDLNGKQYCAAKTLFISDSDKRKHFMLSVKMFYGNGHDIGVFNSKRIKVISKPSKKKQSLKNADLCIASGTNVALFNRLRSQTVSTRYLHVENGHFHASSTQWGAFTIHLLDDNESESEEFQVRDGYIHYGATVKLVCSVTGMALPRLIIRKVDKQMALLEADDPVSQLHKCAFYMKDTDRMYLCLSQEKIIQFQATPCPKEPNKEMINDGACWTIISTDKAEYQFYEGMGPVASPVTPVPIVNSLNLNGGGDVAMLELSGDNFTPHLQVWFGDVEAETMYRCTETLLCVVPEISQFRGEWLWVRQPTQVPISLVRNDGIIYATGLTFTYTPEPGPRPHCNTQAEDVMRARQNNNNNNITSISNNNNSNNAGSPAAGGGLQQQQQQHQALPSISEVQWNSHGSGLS

Su(H)^wt-myc protein level (Western blot, relative to beta-tubulin) 0-6 h after cycloheximide in HeLa RBPJ^KO cells co-expressing ICN^RAMANK (% of the induced protein): 70
Substance: ICN^RAMANK (pcDNA-ICN-RAMANK) (domain or fragment)
